Source: the supplement of paper PMC7877785
± gives the uncertainty stated by the source.

Assay: self-splicing fitness, log relative to wild type (ln ratio); higher = more splicing; Tetrahymena group I intron in knt gene, E. coli kanamycin selection, DiMSum; sequences stand for … in CUCUCU…GGAGGGAAAAGUUAUCAGGCAUGCACCUGGUAGCUAGUCUUUAAACCAAUAGAUUGCAUCGGUUUAAAAGGCAAGACCGUCAAAUUGCGGGAAAGGGGUCAACAGCCGUUCAGUACCAAGUCUCAGGGGAAACUUUGAGAUGGCCUUGCAAAGGGUAUGGUAAUAAGCUGACGGACAUGGUCCUAACCACGCAGCCAAGUCCUAAGUCAACAGAUCUUCUGUUGAUAUGGAUGCAGUUCACAGACUAAAUGUCGGUCGGGGAAGAUGUAUUCUUCUCAUAAGAUAUAGUCGGACCUCUCCUUAAUGGGAGCUAGCGGAUGAAGUGAUGCAACACUGGAGCCGCUGGGAACUAAUUUGUAUGCGAAAGUAUAUUGAUUAGUUUUGGAGUACUCGUGGUCG
Summary of the method: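 Colonies from six replicate transformations of E. coli BL21(DE3) were pooled and amplicon-sequenced on an Illumina HiSeq 2500. The library placed an intron with all eight P1ex-region nucleotides randomised inside the knt kanamycin-resistance gene on pET-22b(+), and cells grew overnight at 37°C or 30°C on LB agar with or without 25 μg/mL kanamycin (plus 100 μg/mL carbenicillin, 50 μM IPTG, 0.2% rhamnose). Fitness is the DiMSum error-weighted combination of wild-type-normalised replicate fold changes, kanamycin versus none.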

Sequence | self-splicing fitness (ln) (30 °C) | self-splicing fitness (ln) (37 °C)
AGCCAGCAAUAUUACGUUCU | -0.687 ± 0.053 | -0.266 ± 0.068
UUGCAGCAAUAUUACGAGUU | -4.24 ± 0.27 | -3.36 ± 0.37
CAGAAGCAAUAUUACGUAAU | -3.4 ± 0.15 | -2.85 ± 0.21
UUCAAGCAAUAUUACGUCAU | -2.97 ± 0.15 | -2.59 ± 0.13
CGAAAGCAAUAUUACGUCCA | -1.26 ± 0.12 | -0.276 ± 0.13
CGUUAGCAAUAUUACGAGCU | -1.25 ± 0.064 | -0.739 ± 0.082
CUUGAGCAAUAUUACGAUAC | -3.57 ± 0.42 | 
GCGCAGCAAUAUUACGUAAG | -0.982 ± 0.066 | -0.943 ± 0.1
GUAAAGCAAUAUUACGGUCC | -1.23 ± 0.21 | -0.634 ± 0.25
AGUUAGCAAUAUUACGUUAA | -3.56 ± 0.38 | -1.48 ± 0.26
GUGAAGCAAUAUUACGCUUG | -1.44 ± 0.11 | -0.0927 ± 0.098
UAAUAGCAAUAUUACGCCAG | -1.07 ± 0.2 | -1.2 ± 0.32
UCAAAGCAAUAUUACGUAGA | -1.47 ± 0.082 | -0.85 ± 0.098
CCAAAGCAAUAUUACGAGCA | -3.64 ± 0.23 | -3.23 ± 0.26
UUCGAGCAAUAUUACGACUG | -3.35 ± 0.34 | -1.48 ± 0.26
AAUGAGCAAUAUUACGUAGC | -2.91 ± 0.2 | -2.05 ± 0.36
UAGCAGCAAUAUUACGUCCU | -1.1 ± 0.068 | -0.435 ± 0.087
UAUCAGCAAUAUUACGCACG | -0.349 ± 0.11 | 0.232 ± 0.14
CAGGAGCAAUAUUACGUAAA | -1.92 ± 0.25 | -1.24 ± 0.31
UUCCAGCAAUAUUACGUCCC | -2 ± 0.33 | -1.84 ± 0.3
GUGAAGCAAUAUUACGUUGU | -2.68 ± 0.17 | -1.63 ± 0.15
ACAAAGCAAUAUUACGGGUU | -2.54 ± 0.087 | -1.23 ± 0.09
GCAUAGCAAUAUUACGAGCG | -1.3 ± 0.077 | -1.05 ± 0.085
AGAUAGCAAUAUUACGUAAG | -1.31 ± 0.065 | -1.44 ± 0.088
CCGCAGCAAUAUUACGCGAG | -3.17 ± 0.12 | -2.2 ± 0.16

Sequence | self-splicing fitness (ln) (30 °C) | self-splicing fitness (ln) (37 °C)
CGCUAGCAAUAUUACGCGCA | -1.81 ± 0.17 | -1.52 ± 0.17
GUAUAGCAAUAUUACGCUGU | -2.81 ± 0.26 | -2.48 ± 0.3
GCCCAGCAAUAUUACGCGCA | -1.44 ± 0.11 | -0.0956 ± 0.1
ACGUAGCAAUAUUACGAGAG | -2.93 ± 0.14 | -2.97 ± 0.23
AUCAAGCAAUAUUACGUGAU | -3.81 ± 0.2 | -2.23 ± 0.17
UCGGAGCAAUAUUACGUAGG | -1.78 ± 0.13 | -0.619 ± 0.15
GAAUAGCAAUAUUACGCUCA | -0.0838 ± 0.16 | 0.784 ± 0.18
UUACAGCAAUAUUACGACCU | -1.38 ± 0.18 | -1.25 ± 0.18
ACAUAGCAAUAUUACGUCAA | -3.99 ± 0.21 | -1.63 ± 0.11
UCAAAGCAAUAUUACGGACG | -1.16 ± 0.079 | -0.282 ± 0.1
UGAUAGCAAUAUUACGUUCC | -1.67 ± 0.24 | -1.1 ± 0.4
AGGAAGCAAUAUUACGUUUU | -4.64 ± 0.31 | -1.82 ± 0.23
UUUAAGCAAUAUUACGCUCA | -0.755 ± 0.15 | -0.395 ± 0.17
CAGGAGCAAUAUUACGGGUA | -4.12 ± 0.42 | -3.31 ± 0.35
AGCAAGCAAUAUUACGUAGA | -2.83 ± 0.15 | -2.44 ± 0.2
UCGCAGCAAUAUUACGAGUU | -4.47 ± 0.28 | -1.95 ± 0.23
GUGAAGCAAUAUUACGCCUC | -1.22 ± 0.25 | -1.09 ± 0.48
CUGUAGCAAUAUUACGUAGA | -2.66 ± 0.12 | -2.51 ± 0.16
UGUUAGCAAUAUUACGUAUA | -1.7 ± 0.12 | -0.458 ± 0.11
CGUGAGCAAUAUUACGAGAC |  | -0.958 ± 0.35
GAUCAGCAAUAUUACGAGUC | -3.31 ± 0.29 | -0.73 ± 0.16
GAGUAGCAAUAUUACGCCGG | -1.99 ± 0.35 | 
AUACAGCAAUAUUACGCCUC | -2.79 ± 0.2 | -1.86 ± 0.17
GAGCAGCAAUAUUACGUAAA | -1.89 ± 0.14 | -1.13 ± 0.14
AAGCAGCAAUAUUACGUUCG | -1.98 ± 0.089 | -0.509 ± 0.1

Sequence | self-splicing fitness (ln) (30 °C) | self-splicing fitness (ln) (37 °C)
AAGUAGCAAUAUUACGACGC | -0.792 ± 0.12 | 0.204 ± 0.14
UCGAAGCAAUAUUACGACAA | -1.59 ± 0.14 | -1.07 ± 0.15
UACGAGCAAUAUUACGCUUA | -1.96 ± 0.25 | -0.594 ± 0.22
AUCCAGCAAUAUUACGGGUC | -3.06 ± 0.12 | -1.62 ± 0.13
AUGCAGCAAUAUUACGAUCU | -0.511 ± 0.084 | 0.285 ± 0.13
GCAAAGCAAUAUUACGGUCA | -1.12 ± 0.083 | -0.197 ± 0.087
AUGAAGCAAUAUUACGCUAC | -2.06 ± 0.094 | -1.86 ± 0.15
UUCGAGCAAUAUUACGGAAA | -1.51 ± 0.18 | -2.84 ± 0.32
GAGUAGCAAUAUUACGUUGU | -2.19 ± 0.17 | -1.41 ± 0.16
GAGUAGCAAUAUUACGAUAC | -2.31 ± 0.21 | -2.92 ± 0.24
AGGGAGCAAUAUUACGAAGG | -2.19 ± 0.31 | 
CGCAAGCAAUAUUACGUCCC | -2.84 ± 0.34 | -0.615 ± 0.26
CAUUAGCAAUAUUACGACUA | -1.75 ± 0.49 | 
GCGUAGCAAUAUUACGUCCC | -0.245 ± 0.24 | 
CUAGAGCAAUAUUACGUAAU | -3.79 ± 0.2 | -2.22 ± 0.23
CCAGAGCAAUAUUACGGGAC | -2.81 ± 0.33 | 
CUCAAGCAAUAUUACGGGGG | -4.01 ± 0.23 | -2.88 ± 0.2
UAGGAGCAAUAUUACGGCAA |  | -1.07 ± 0.2
AUGUAGCAAUAUUACGGUCG | -1.44 ± 0.12 | -1.59 ± 0.17
CCAGAGCAAUAUUACGUGAC | -3.36 ± 0.19 | -3.93 ± 0.46
GCGGAGCAAUAUUACGGGAG | -2.36 ± 0.42 | -0.916 ± 0.48
UAUGAGCAAUAUUACGCGAA | -1.62 ± 0.18 | -0.947 ± 0.32
UGCGAGCAAUAUUACGAAUC | -4.3 ± 0.43 | -2.41 ± 0.23
UGAUAGCAAUAUUACGACUA | -0.635 ± 0.13 | 0.407 ± 0.17
GGGAAGCAAUAUUACGCAGA | -3.81 ± 0.42 | -1.65 ± 0.27

Sequence | self-splicing fitness (ln) (30 °C) | self-splicing fitness (ln) (37 °C)
AUGAAGCAAUAUUACGAUGU | 0.274 ± 0.092 | -0.284 ± 0.099
AUAGAGCAAUAUUACGUCCA | -2.35 ± 0.21 | -0.672 ± 0.2
UAGGAGCAAUAUUACGUUAA | -1.4 ± 0.28 | -2.55 ± 0.39
AUCGAGCAAUAUUACGCGCA | -1.59 ± 0.17 | -0.0318 ± 0.17
AUGGAGCAAUAUUACGGACG | -2.44 ± 0.32 | -0.988 ± 0.3
AGAAAGCAAUAUUACGGAAU | -2.02 ± 0.15 | -1.74 ± 0.2
CACUAGCAAUAUUACGACUC | -1.68 ± 0.21 | -2.63 ± 0.36
UUGGAGCAAUAUUACGAGAA |  | -1.78 ± 0.44
CUUAAGCAAUAUUACGUCGU | -4.59 ± 0.46 | -2.22 ± 0.29
CCAGAGCAAUAUUACGGCCC | -2.44 ± 0.46 | -1.44 ± 0.42
CUUAAGCAAUAUUACGUCUA | -3.67 ± 0.25 | -2.97 ± 0.23
GCGUAGCAAUAUUACGGAAA | -3.29 ± 0.37 | -0.0155 ± 0.18
CGCUAGCAAUAUUACGAAUU | -2.77 ± 0.16 | -2.58 ± 0.28
CCCGAGCAAUAUUACGGCUG | -4.35 ± 0.39 | -2.72 ± 0.33
CAUAAGCAAUAUUACGAGUA | -2.34 ± 0.15 | -1.45 ± 0.15
ACUGAGCAAUAUUACGACGA | -1.3 ± 0.13 | -0.569 ± 0.12
AGCAAGCAAUAUUACGAUAC |  | -1.72 ± 0.46
GCUAAGCAAUAUUACGUCGA | -1.21 ± 0.11 | -0.619 ± 0.15
CUUUAGCAAUAUUACGUCUU | -3.41 ± 0.26 | -3.28 ± 0.33
UGCGAGCAAUAUUACGAUGU | -3.53 ± 0.13 | -2.97 ± 0.18
CGUCAGCAAUAUUACGGCUC | -1.43 ± 0.081 | 0.225 ± 0.088
CGGGAGCAAUAUUACGUCGA |  | -1.71 ± 0.48
AGGUAGCAAUAUUACGUCCG | -0.127 ± 0.017 | 0.055 ± 0.036
